Reference: PMC9663324, “Structural and mutational studies suggest key residues to determine whether stomatin SPFH domains form dimers or trimers” (Biochemistry and Biophysics Reports, 2022)

B1: PhStom (63–234) (domain or fragment, Pyrococcus horikoshii, UniProt O59180 63-234, looked up)
chain: VDLRTQVLDVPVQETITKDNVPVRVNAVVYFRVVDPVKAVTQVKNYIMATSQISQTTLRSVIGQAHLDELLSERDKLNMQLQRIIDEATDPWGIKVTAVEIKDVELPAGMQKAMARQAEAERERRARITLAEAERQAAEKLREAAEIISEHPMALQLRTLQTISDVAGDKSN
notes: stomatin PH1511 of Pyrococcus horikoshii, residues 63–234; Initial methionine added before residue 63; In the crystal (8GN9) only residues 64–169 are modelled; the authors consider that residues 170–234 (and so the tag) were degraded during crystallization; source: E. coli BL21 (DE3) Codon-Plus RIL, purified (heat 85 °C, Ni-NTA, Superdex 200 gel filtration)
B2: PhStom (56–234) K59S (domain or fragment, Pyrococcus horikoshii, UniProt O59180 56-234, looked up)
chain: IFESAVIVDLRTQVLDVPVQETITKDNVPVRVNAVVYFRVVDPVKAVTQVKNYIMATSQISQTTLRSVIGQAHLDELLSERDKLNMQLQRIIDEATDPWGIKVTAVEIKDVELPAGMQKAMARQAEAERERRARITLAEAERQAAEKLREAAEIISEHPMALQLRTLQTISDVAGDKSN
notes: stomatin PH1511 of Pyrococcus horikoshii, residues 56–234 with K59S; Initial methionine added before residue 56; PDB 3BK6 is the parent (wild type) of the same limits; also called K59S mutant of PhStom (56–234); K59S mutant; source: E. coli BL21 (DE3) Codon-Plus RIL, purified (heat 85 °C, Ni-NTA, Superdex 200 gel filtration)

Molecular target: the molecule itself
Test: SEC; Hi Load 16/60 Superdex 200 gel-filtration column, 50 mM Tris-HCl (pH 8.2), 50 mM NaCl, 1 mL/min; approximate molecular mass estimated from the elution of calibration proteins (44–669 kDa)

Protein	stoichiometry N
B1	2
B2	2
